Results from patent US8936785 (ESBATECH AN ALCON BIOMEDICAL RESEARCH UNIT, dated 2015).

Tests used:
[1] = target: T1, TNFα (tumour necrosis factor alpha) (UniProt P01375 77-233, limits assumed); experiment: cell-based or functional assay
[2] = target: T1, TNFα (tumour necrosis factor alpha); experiment: cell-based or functional assay; remark: listed apart in the source

T1 sequence (P01375 77-233 limits assumed): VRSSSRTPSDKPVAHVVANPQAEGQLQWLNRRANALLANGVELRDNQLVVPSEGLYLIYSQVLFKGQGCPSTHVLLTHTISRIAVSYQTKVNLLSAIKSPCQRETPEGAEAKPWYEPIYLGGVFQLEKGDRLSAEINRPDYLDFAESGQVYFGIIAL

| Binder | Relative potency: EC50X/EC50ESBA105, KYM-1 cells [1] | Relative potency: EC50X/EC50ESBA105, L929 cells [1] | EC50 (read off the curve), L929 assay, ESBA105 stored 8 weeks at 37° C. (triangles, dashed line) [2] |
| --- | --- | --- | --- |
| ESBA105 (scFv) scFv: DIVMTQSPSSLSASVGDRVTLTCTASQSVSNDVVWYQQRPGKAPKLLIYSAFNRYTGVPSRFSGRGYGTDFTLTISSLQPEDVAVYYCQQDYNSPRTFGQGTKLEVKRGGGGSGGGGSGGGGSSGGGSQVQLVQSGAEVKKPGASVKVSCTASGYTFTHYGMNWVRQAPGKGLEWMGWINTYTGEPTYADKFKDRFTFSLETSASTVYMELTSLTSDDTAVYYCARERGDAMDYWGQGTLVTVSS | 1 ratio EC50X/EC50ESBA105 | 1 ratio EC50X/EC50ESBA105 | ~10 ng/mL |
| ESBA105-QC15.2 (scFv) scFv: DIVMTQSPSSLSASVGDRVTLTCTASQSVSNDVVWYQQRPGKAPKLLIYSAFNRYTGVPSRFSGRGYGTDFTLTISSLQPEDVAVYYCQQDYNSPRTFGQGTKLEVKRGGGGSGGGGSGGGGSSGGGSQVQLVQSGAEVKKPGASVKVSCTASGYTFTHYGMNWVRQAPGRGLEWMGWINTYTGEPTYADKFKDRITFSLETSASTVYMELTSLTSDDTAVYYCARERGDAMDYWGQGTLVTVSS | 1.5 ratio EC50X/EC50ESBA105 | 1.37 ratio EC50X/EC50ESBA105 | – |
| ESBA105-H_F68A (scFv) scFv: DIVMTQSPSSLSASVGDRVTLTCTASQSVSNDVVWYQQRPGKAPKLLIYSAFNRYTGVPSRFSGRGYGTDFTLTISSLQPEDVAVYYCQQDYNSPRTFGQGTKLEVKRGGGGSGGGGSGGGGSSGGGSQVQLVQSGAEVKKPGASVKVSCTASGYTFTHYGMNWVRQAPGKGLEWMGWINTYTGEPTYADKFKDRATFSLETSASTVYMELTSLTSDDTAVYYCARERGDAMDYWGQGTLVTVSS | – | 1.14 ratio EC50X/EC50ESBA105 | – |
